The values below come from US6306832, “Peptide antiestrogen compositions and methods for treating breast cancer” (University of California).

The target of the data set is estrogen receptor alpha (ER), purified recombinant (Homo sapiens, UniProt P03372 P03372:1-595). The experiment in a line: EMSA; 60 nM ER, 100 nM estradiol, HEPES pH 7.5, 100 mM KCl, 1 mM EDTA, poly(dI-dC), 4 C; competed by 100x unlabelled ERE; blocked by 0.5 uM pY8/pY10/mY8 peptides, not by conY. The note with it: tags: Panvera (Madison, WI); chain copies: 2 (homodimer, stated); label: 32P 5'-end (polynucleotide kinase). The procedure:
FIG. 6B. Purified human ER (60 nM) was incubated with control solution (CON), a 100-fold molar excess of unlabelled ERE (100 ERE) or with peptides at 250 nM or 500 nM. ER was incubated with peptides for 15 min at 4° C. followed by addition of 100 nM estradiol-17β and ^32P-ERE. Peptides included phosphotyrosyl-octapeptide (pY8), control non-phosphorylated octapeptide (conY), malonyltyrosyl-octapeptide(mY8), phosphotyrosine amino acid alone (pY), as an additional control, and a phosphotyrosyl-decapeptide, N-Val-Pro-Leu-pTyr-Asp-Leu-Leu-Leu-Glu-Met-C (pYl 0) (SEQ ID NO:3). Although not shown, the effect of conY at 500 nM was the same as that shown at a concentration of 250 nM.
Interaction of ER with nuclear ERE is prerequisite for activation of transcription. To assess the specific binding of ER with ERE, purified recombinant human ER from MCF-7 breast cancer cells were used. A double-stranded 27-bp probe (5'-[…]-3') (SEQ ID NO:12) encoding the Xenopus vitellogenin A_2 ERE was ^32P-end-labeled with polynucleotide kinase. Gel mobility shift assays for the human ER were performed as described (Arnold et al., 1995a; Arnold and Notides, 1995; Arnold et al., 1995b). […]

estrogen receptor alpha (ER), purified recombinant, sequence (P03372 whole entry, one chain of several): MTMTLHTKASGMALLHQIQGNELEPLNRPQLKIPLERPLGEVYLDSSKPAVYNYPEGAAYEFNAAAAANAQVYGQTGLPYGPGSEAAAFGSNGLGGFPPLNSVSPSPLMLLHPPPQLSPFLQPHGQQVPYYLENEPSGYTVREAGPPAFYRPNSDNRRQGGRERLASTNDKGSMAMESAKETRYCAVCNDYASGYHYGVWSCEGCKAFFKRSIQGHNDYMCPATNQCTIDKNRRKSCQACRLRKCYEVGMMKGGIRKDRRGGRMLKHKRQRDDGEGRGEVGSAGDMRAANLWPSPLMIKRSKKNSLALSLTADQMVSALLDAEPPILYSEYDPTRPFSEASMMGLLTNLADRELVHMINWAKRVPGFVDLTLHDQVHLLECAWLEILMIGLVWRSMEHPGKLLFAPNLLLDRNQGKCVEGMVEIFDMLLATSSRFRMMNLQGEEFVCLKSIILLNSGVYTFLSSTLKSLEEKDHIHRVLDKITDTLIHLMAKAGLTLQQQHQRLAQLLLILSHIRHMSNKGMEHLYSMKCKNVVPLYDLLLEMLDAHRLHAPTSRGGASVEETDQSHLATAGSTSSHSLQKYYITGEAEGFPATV

B1: vitellogenin A2 ERE 27-bp probe (dsDNA)
DNA 1: GATCCTAGAGGTCACAGTGACCTACGA
DNA 2: TCGTAGGTCACTGTGACCTCTAGGATC
Turning to B1, the binding result was “binds”.
